The values that follow come from publication doi:10.1101/497024.

The experiment deals with HeV PNT3 (aa 200-310 of the Hendra virus P/V protein) (Hendra virus) (UniProt O55778). Nature of the experiment: SAXS.

For orientation: stoichiometry N means the number of molecules, sites or subunits per partner or assembly. The substance “HeV PNT3 (aa 200-310 of the Hendra virus P/V protein) (from UniProt O55778 200-310) (domain or fragment)” gave a stoichiometry N of 100 monomers.
